Assay results from patent US20140099299A1 (UAB RESEARCH FOUNDATION, published 2014).
Changes are numbered by the printed parent chain. Names may count otherwise.

B1: H6FXa-rhcmvIL-10 Arg-34Glu point mutant (R63E of SEQ ID NO:1) (ligand)
chain: PPHHHHHHSDIEGRAHDHEHKEVPPACDPVHGNLAGIFKELRATYASIEEGLQKKDTVYYTSLFNDRVLHEMLSPMGCRVTNELMEHYLDGVLPRASHLDYDNSTLNGLHVFASSMQALYQHMLKCPALACTGKTPAWMYFLEVEHKLNPWRGTAKAAAEADLLLNYLETFLLQF
notes: Tested as Drosophila cell supernatant; Its exact end in pAHF cannot be seen because the underlining is lost; also called R34E; Lys-34Glu
B2: H6FXa-rhcmvIL-10 Asp-144His point mutant (D176H of SEQ ID NO:1) (ligand)
chain: B1 chain with E49R, D162H
notes: Tested as Drosophila cell supernatant; also called D144H
B3: H6FXa-rhcmvIL-10 Gln-38Arg point mutant (Q67R of SEQ ID NO:1) (ligand)
chain: B1 chain with E49R, Q53R
notes: Tested as Drosophila cell supernatant; also called Q38R

Legend:
[1] = biological target: T1, human IL-10R1 chain coupled to agarose beads (human, UniProt Q13651 22-235); assay: pull-down of 500 µL Drosophila medium with 15 µL HuIL-10R1-coupled agarose beads, Coomassie-stained SDS-PAGE
T1 construct: also called HuIL-10R1 coupled beads; human IL-10R1 beads
T1 sequence: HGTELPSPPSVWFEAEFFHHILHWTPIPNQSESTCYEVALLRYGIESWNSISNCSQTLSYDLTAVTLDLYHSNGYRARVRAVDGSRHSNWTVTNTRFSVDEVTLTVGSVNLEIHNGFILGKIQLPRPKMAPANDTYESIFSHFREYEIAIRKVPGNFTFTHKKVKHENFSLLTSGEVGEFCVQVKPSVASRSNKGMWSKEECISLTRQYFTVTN

[2] = biological target: T2, human IL-10R1 chain on transfected TF-1 cells (TF-1/HuIL-10R1) (human, UniProt Q13651 22-578); assay: cell-based or functional assay
T2 sequence: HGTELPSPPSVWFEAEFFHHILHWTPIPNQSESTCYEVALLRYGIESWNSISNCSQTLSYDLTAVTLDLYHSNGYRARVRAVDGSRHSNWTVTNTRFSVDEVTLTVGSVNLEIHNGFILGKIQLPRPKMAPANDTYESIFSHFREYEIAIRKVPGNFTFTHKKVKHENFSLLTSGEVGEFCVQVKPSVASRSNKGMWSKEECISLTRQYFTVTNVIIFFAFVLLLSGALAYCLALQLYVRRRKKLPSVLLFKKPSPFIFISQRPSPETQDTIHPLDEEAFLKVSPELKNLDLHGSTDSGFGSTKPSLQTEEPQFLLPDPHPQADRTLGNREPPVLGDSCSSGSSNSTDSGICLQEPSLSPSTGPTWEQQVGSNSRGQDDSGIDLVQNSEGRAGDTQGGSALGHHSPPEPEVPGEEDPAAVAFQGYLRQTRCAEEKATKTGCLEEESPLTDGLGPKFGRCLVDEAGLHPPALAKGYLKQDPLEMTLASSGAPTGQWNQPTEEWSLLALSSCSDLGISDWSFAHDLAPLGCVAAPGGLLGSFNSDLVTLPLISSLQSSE

Binder | binding result [1] | proliferation of TF-1/HuIL-10R1 cells [2]
B1 | no binding | –
B2 | no binding | ~300 fold reduction in activity
B3 | no binding | ~100 fold reduction in activity
